Assay [1] deals with Prolink (PK)-tagged CXC chemokine receptor 4 (CXCR4) (UniProt P61073).
Assay [2] shares this target. The source holds these as a separate data set.

Chain of UniProt P61073 (P61073 whole entry): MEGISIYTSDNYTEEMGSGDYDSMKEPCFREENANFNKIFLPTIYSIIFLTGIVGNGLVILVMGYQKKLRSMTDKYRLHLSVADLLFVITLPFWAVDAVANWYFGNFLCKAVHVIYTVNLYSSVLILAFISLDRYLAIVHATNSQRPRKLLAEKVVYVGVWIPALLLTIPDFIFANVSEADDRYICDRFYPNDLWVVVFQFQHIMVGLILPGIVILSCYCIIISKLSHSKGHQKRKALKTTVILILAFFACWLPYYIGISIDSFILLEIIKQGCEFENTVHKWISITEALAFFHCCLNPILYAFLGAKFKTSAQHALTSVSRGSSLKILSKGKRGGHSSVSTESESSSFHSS

As for “CXC chemokine ligand 12 (CXCL12) (from UniProt P48061 22-93)”, in assay [1], the β-arrestin2 recruitment to PK-tagged CXCR4 (PathHunter, C2C12 cells), potency of CXCL12 (pEC50) came to 7.7 pEC50. In assay [2], this substance returned a half-time of internalization of SNAP-tagged CXCR4 in HEK293A cells with 1 µM CXCL12 (constitutive: 22.1 min) of 14.1 min and a real-time internalization of N-terminally SNAP-tagged CXCR4 in HEK293A cells, CXCL12 0.1 nM to 1 µM, potency of CXCL12 (pEC50) of 7.7 pEC50.

The values above are taken from article PMC8115334.
